The text below walks through data of patent US9885687B2, “Apparatus and method for evaluating characteristics of target molecules” (Dynamic Biosensors GmbH, priority 2010, dated 2018).

This series in a line: voltage response curve (normalized fluorescence versus static substrate potential) to determine target charge. The following applies: protein bound to probe DNA. Type of series: physicochemical. The text has this: Note that so far no time dependence has been introduced, since the electric field has been kept stationary. However, with the above equation, it is possible to calculate the fluorescence signal for different values of the applied static potential Φ. The corresponding curve is referred to as “voltage response curve” in the following.
Further note that the model so far only accounted for the free probe molecule, i.e. the double-stranded DNA, but not for any target molecule. As long as the stationary state is concerned, i.e. without a time-dependent electrical field, the target molecule will mainly affect the results due to a possible charge thereof. In fact, based on the above understanding of the stochastic behaviour of the probe molecule, the inventors conjectured that it should be possible to qualitatively and quantitatively determine the charge of the target molecule from the voltage response curve.
The corresponding voltage response curve is shown by filled circles, while the voltage response curve of the free DNA is again shown by open diamonds. It can be seen that the voltage response curve in presence of the avidin also differs noticeably from that of the DNA alone.

“avidin: positively charged protein bound to the probe DNA”: the “charge of the target molecule” value is reported as “positively charged”. Regarding “streptavidin: negatively charged protein bound to the probe DNA”, the “charge of the target molecule” value is on record as “negatively charged”.
